{"source": "the Human Domainome abundance scans (Beltran et al. 2025)", "parents": {"B1": {"name": "Death-inducer obliterator 1, residues 263 to 321; numbered along this chain, Q9BTC0 (parent)", "chain": "GYDPNALYCICRQPHNNRFMICCDRCEEWFHGDCVGISEARGRLLERNGEDYICPNCTI"}}, "note": "± gives the uncertainty stated by the source."}
{"variants_of": "B1", "test": "abundance fitness (aPCA) (normalised: wild type 0, dead -1); higher = more abundant; growth selection in yeast, the domain comes from the species named", "details": "Homo sapiens"}
{"variant": "GYDPNALYCICRQPHNNRFMICCDRCEEWFHGDMVGISEARGRLLERNGEDYICPNCTI", "note": "[C34M]", "abundance fitness": "-0.831 ± 0.14"}
{"variant": "GYDPNALYCICRQPHNNRFMICCDRCEEWFHGDNVGISEARGRLLERNGEDYICPNCTI", "note": "[C34N]", "abundance fitness": "-0.937 ± 0.15"}
{"variant": "GYDPNALYCICRQPHNNRFMICCDRCEEWFHGDPVGISEARGRLLERNGEDYICPNCTI", "note": "[C34P]", "abundance fitness": "-0.803 ± 0.12"}
{"variant": "GYDPNALYCICRQPHNNRFMICCDRCEEWFHGDQVGISEARGRLLERNGEDYICPNCTI", "note": "[C34Q]", "abundance fitness": "-0.644 ± 0.098"}
{"variant": "GYDPNALYCICRQPHNNRFMICCDRCEEWFHGDRVGISEARGRLLERNGEDYICPNCTI", "note": "[C34R]", "abundance fitness": "-0.697 ± 0.089"}
{"variant": "GYDPNALYCICRQPHNNRFMICCDRCEEWFHGDSVGISEARGRLLERNGEDYICPNCTI", "note": "[C34S]", "abundance fitness": "-0.867 ± 0.11"}
{"variant": "GYDPNALYCICRQPHNNRFMICCDRCEEWFHGDTVGISEARGRLLERNGEDYICPNCTI", "note": "[C34T]", "abundance fitness": "-0.703 ± 0.092"}
{"variant": "GYDPNALYCICRQPHNNRFMICCDRCEEWFHGDWVGISEARGRLLERNGEDYICPNCTI", "note": "[C34W]", "abundance fitness": "-1.03 ± 0.2"}
{"variant": "GYDPNALYCICRQPHNNRFMICCDRCEEWFHGDCAGISEARGRLLERNGEDYICPNCTI", "note": "[V35A]", "abundance fitness": "-0.058 ± 0.07"}
{"variant": "GYDPNALYCICRQPHNNRFMICCDRCEEWFHGDCCGISEARGRLLERNGEDYICPNCTI", "note": "[V35C]", "abundance fitness": "-0.113 ± 0.12"}
{"variant": "GYDPNALYCICRQPHNNRFMICCDRCEEWFHGDCDGISEARGRLLERNGEDYICPNCTI", "note": "[V35D]", "abundance fitness": "-0.351 ± 0.094"}
{"variant": "GYDPNALYCICRQPHNNRFMICCDRCEEWFHGDCEGISEARGRLLERNGEDYICPNCTI", "note": "[V35E]", "abundance fitness": "-0.602 ± 0.1"}
{"variant": "GYDPNALYCICRQPHNNRFMICCDRCEEWFHGDCFGISEARGRLLERNGEDYICPNCTI", "note": "[V35F]", "abundance fitness": "-0.225 ± 0.083"}
{"variant": "GYDPNALYCICRQPHNNRFMICCDRCEEWFHGDCGGISEARGRLLERNGEDYICPNCTI", "note": "[V35G]", "abundance fitness": "-0.333 ± 0.083"}
{"variant": "GYDPNALYCICRQPHNNRFMICCDRCEEWFHGDCIGISEARGRLLERNGEDYICPNCTI", "note": "[V35I]", "abundance fitness": "0.159 ± 0.066"}
{"variant": "GYDPNALYCICRQPHNNRFMICCDRCEEWFHGDCKGISEARGRLLERNGEDYICPNCTI", "note": "[V35K]", "abundance fitness": "-0.407 ± 0.077"}
{"variant": "GYDPNALYCICRQPHNNRFMICCDRCEEWFHGDCMGISEARGRLLERNGEDYICPNCTI", "note": "[V35M]", "abundance fitness": "-0.043 ± 0.066"}
{"variant": "GYDPNALYCICRQPHNNRFMICCDRCEEWFHGDCNGISEARGRLLERNGEDYICPNCTI", "note": "[V35N]", "abundance fitness": "-0.171 ± 0.099"}
{"variant": "GYDPNALYCICRQPHNNRFMICCDRCEEWFHGDCPGISEARGRLLERNGEDYICPNCTI", "note": "[V35P]", "abundance fitness": "-0.345 ± 0.083"}
{"variant": "GYDPNALYCICRQPHNNRFMICCDRCEEWFHGDCQGISEARGRLLERNGEDYICPNCTI", "note": "[V35Q]", "abundance fitness": "-0.183 ± 0.1"}
{"variant": "GYDPNALYCICRQPHNNRFMICCDRCEEWFHGDCRGISEARGRLLERNGEDYICPNCTI", "note": "[V35R]", "abundance fitness": "-0.387 ± 0.07"}
{"variant": "GYDPNALYCICRQPHNNRFMICCDRCEEWFHGDCSGISEARGRLLERNGEDYICPNCTI", "note": "[V35S]", "abundance fitness": "-0.403 ± 0.069"}
{"variant": "GYDPNALYCICRQPHNNRFMICCDRCEEWFHGDCTGISEARGRLLERNGEDYICPNCTI", "note": "[V35T]", "abundance fitness": "-0.095 ± 0.074"}
{"variant": "GYDPNALYCICRQPHNNRFMICCDRCEEWFHGDCWGISEARGRLLERNGEDYICPNCTI", "note": "[V35W]", "abundance fitness": "-0.61 ± 0.16"}
{"variant": "GYDPNALYCICRQPHNNRFMICCDRCEEWFHGDCYGISEARGRLLERNGEDYICPNCTI", "note": "[V35Y]", "abundance fitness": "-0.707 ± 0.12"}
{"variant": "GYDPNALYCICRQPHNNRFMICCDRCEEWFHGDCVAISEARGRLLERNGEDYICPNCTI", "note": "[G36A]", "abundance fitness": "-0.153 ± 0.089"}
{"variant": "GYDPNALYCICRQPHNNRFMICCDRCEEWFHGDCVCISEARGRLLERNGEDYICPNCTI", "note": "[G36C]", "abundance fitness": "-0.122 ± 0.092"}
{"variant": "GYDPNALYCICRQPHNNRFMICCDRCEEWFHGDCVDISEARGRLLERNGEDYICPNCTI", "note": "[G36D]", "abundance fitness": "0.038 ± 0.082"}
{"variant": "GYDPNALYCICRQPHNNRFMICCDRCEEWFHGDCVEISEARGRLLERNGEDYICPNCTI", "note": "[G36E]", "abundance fitness": "0.057 ± 0.072"}
{"variant": "GYDPNALYCICRQPHNNRFMICCDRCEEWFHGDCVFISEARGRLLERNGEDYICPNCTI", "note": "[G36F]", "abundance fitness": "-0.256 ± 0.12"}
{"variant": "GYDPNALYCICRQPHNNRFMICCDRCEEWFHGDCVHISEARGRLLERNGEDYICPNCTI", "note": "[G36H]", "abundance fitness": "-0.111 ± 0.14"}
{"variant": "GYDPNALYCICRQPHNNRFMICCDRCEEWFHGDCVIISEARGRLLERNGEDYICPNCTI", "note": "[G36I]", "abundance fitness": "-0.15 ± 0.096"}
{"variant": "GYDPNALYCICRQPHNNRFMICCDRCEEWFHGDCVLISEARGRLLERNGEDYICPNCTI", "note": "[G36L]", "abundance fitness": "-0.135 ± 0.061"}
{"variant": "GYDPNALYCICRQPHNNRFMICCDRCEEWFHGDCVMISEARGRLLERNGEDYICPNCTI", "note": "[G36M]", "abundance fitness": "0.009 ± 0.062"}
{"variant": "GYDPNALYCICRQPHNNRFMICCDRCEEWFHGDCVPISEARGRLLERNGEDYICPNCTI", "note": "[G36P]", "abundance fitness": "-0.425 ± 0.13"}
{"variant": "GYDPNALYCICRQPHNNRFMICCDRCEEWFHGDCVQISEARGRLLERNGEDYICPNCTI", "note": "[G36Q]", "abundance fitness": "0.013 ± 0.084"}
{"variant": "GYDPNALYCICRQPHNNRFMICCDRCEEWFHGDCVRISEARGRLLERNGEDYICPNCTI", "note": "[G36R]", "abundance fitness": "-0.072 ± 0.047"}
{"variant": "GYDPNALYCICRQPHNNRFMICCDRCEEWFHGDCVSISEARGRLLERNGEDYICPNCTI", "note": "[G36S]", "abundance fitness": "-0.002 ± 0.058"}
{"variant": "GYDPNALYCICRQPHNNRFMICCDRCEEWFHGDCVVISEARGRLLERNGEDYICPNCTI", "note": "[G36V]", "abundance fitness": "-0.173 ± 0.059"}
{"variant": "GYDPNALYCICRQPHNNRFMICCDRCEEWFHGDCVWISEARGRLLERNGEDYICPNCTI", "note": "[G36W]", "abundance fitness": "-0.469 ± 0.1"}
{"variant": "GYDPNALYCICRQPHNNRFMICCDRCEEWFHGDCVYISEARGRLLERNGEDYICPNCTI", "note": "[G36Y]", "abundance fitness": "-0.066 ± 0.069"}
{"variant": "GYDPNALYCICRQPHNNRFMICCDRCEEWFHGDCVGASEARGRLLERNGEDYICPNCTI", "note": "[I37A]", "abundance fitness": "-0.127 ± 0.061"}
{"variant": "GYDPNALYCICRQPHNNRFMICCDRCEEWFHGDCVGCSEARGRLLERNGEDYICPNCTI", "note": "[I37C]", "abundance fitness": "-0.113 ± 0.12"}
{"variant": "GYDPNALYCICRQPHNNRFMICCDRCEEWFHGDCVGDSEARGRLLERNGEDYICPNCTI", "note": "[I37D]", "abundance fitness": "-0.447 ± 0.21"}
{"variant": "GYDPNALYCICRQPHNNRFMICCDRCEEWFHGDCVGESEARGRLLERNGEDYICPNCTI", "note": "[I37E]", "abundance fitness": "-0.054 ± 0.07"}
